Data on 4 molecules can be found in patent publication US20240026407A1, “MODIFICATION OF SAPONINS” (GLAXOSMITHKLINE BIOLOGICALS SA, priority 2020, published 2024).

Format in all cases: biochemical, Quillaja saponaria
Test [1] can be described thus: Experiment 6-1: screening of rhamnosidases for derhamnosylation of saponins in treated bark extract (2%), QS-17 2296 to QS-18 2150 (PAR %). The conditions noted are these: TBE 2%, pH 7.5, 30 degC, 18 h; TIC peak area ratio percent of rhamnosylated starting saponin to derhamnosylated product, LCMS/MS; negative controls 4.876, 5.225.
Test [2] can be described thus: Experiment 6-1: screening of rhamnosidases for derhamnosylation of saponins in treated bark extract (2%), desglucosyl-QS-17 2134 to QS-21 1988 (PAR %). The conditions noted are these: TBE 2%, pH 7.5, 30 degC, 18 h; TIC peak area ratio percent, LCMS/MS; negative controls 2.719, 2.158.
A short description of test [3]: Experiment 6-1: screening of rhamnosidases for derhamnosylation of saponins in treated bark extract (2%), QS-17 2310 to QS-18 2164 (PAR %). The conditions noted are these: TBE 2%, pH 7.5, 30 degC, 18 h; TIC peak area ratio percent, LCMS/MS; negative controls 3.061, 2.429.
A short description of test [4]: Experiment 6-2: screening of rhamnosidases for derhamnosylation of saponins in treated bark extract (25%), relative % of Left, Middle and Right Peak by UV HPLC. The conditions noted are these: TBE 25%, pH 7.4, 19.5 h; for Left Peak: mainly QS-17 family, negative control 24%; for Middle Peak: mainly QS-18 and desglucosyl-QS-17 family, negative control 50%; for Right Peak: mainly QS-21 family, negative control 26%.

Test [5] is described as follows: Experiment 6-3: screening of rhamnosidases for derhamnosylation of saponins in crude bark extract (80%), relative % of Left, Middle and Right Peak by UV HPLC. The following applies: CBE 80%, pH 7.4, 30 degC, 19.5 h; for Left Peak: mainly QS-17 family, negative control 27%; for Middle Peak: mainly QS-18 and desglucosyl-QS-17 family, negative control 48%; for Right Peak: mainly QS-21 family, negative control 26%. In outline: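 Clarified lysates of expressed rhamnosidase variants were incubated with crude bark extract (pH 7.4, final 80%) at 30 degC with shaking for 19.5 h, then quenched with MeCN+2% AcOH. UV HPLC gave relative % of Left (QS-17), Middle (QS-18/desglucosyl-QS-17) and Right (QS-21) peaks.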

The nature of test [6]: Experiment 6-1: specificity of rhamnosidases towards other rhamnose residues (C3 saccharide rhamnose, C28 saccharide rhamnose). The following applies: TBE 2%, pH 7.5, 30 degC, 18 h; LCMS/MS; negative controls 0.18, 0.17.

B1: 990 (protein, listed as Streptomyces bingchenggensis)
chain: MISRRNLLGTATAAGPALTGLTALAATTGKAEAAEPGYGGLRVEKTTVEYADRPLGLDAPHPRLSWQLGSDRRNQSQSAYQLRVATSPGRIGAPDVWDSGKVSSHQSVLVPYDGPKLRARTRYHWAVRVWDGQGRPSPWSEPTWWETGLGTEDEGAARWVAAPDTVTRGPDLAKADWVWYPEGDPASSAPAGTRYFRGSLDVSGSVRLARLALVADDGFTAWVNGTEIGGRAPVQENWRHPVVVDVTALLREGANTIAVAAVNASSSPAGLLGVLELTDTDGVRSLTTSAAWKATDTEPSGDWHLPAYDDGGWAAAKVLAPWGGGPWGRVRAAQRPALVRRDFRLAAKPVARARLYSTALGLYEAEINGHRVGRDQLAPGWTDYRKRVQYQTYDVTDLLRHGANAIGVILASGWYSGSVAWFGQELYGERPALRAELEVTYADGSTDRVTADTHWRCATGPILTADLMAGEEYDARLEVSGWSSPAFDDSLWQSVDVVPADTTSAVSVVAQTDAPVRVARELAAVRVTEPKPGVYVFDLGQNMVGSVRLRVRGEAGRTVRLRHAEVLDKDGMLYTANLRTAQATDSYTLKGSGTETFEPRFTFHGFRYVEVTGYPGTPDTKSVTGRVMHTGAPFTMSFTTDVPMLDQLHRNITWGQRGNFLSVPTDTPARDERLGWTGDINVFSATAAYTMESARFLAKWLRDLRDGQSDAGAFPDVAPRIGNLGEGTAGWGDAGVTVPWNLYQAYGDRQILADNFPAMRAWITYLEQHSSGCLRPAEGYGDWLNVADETPKDVIATAYFAHSTQLVAKAARVLGHDPAPYDTLAAKVREAFNRAYVSADGTVKGNTQTAYVLALSMDLLPDSARTPAAERLVELIRSKDRHLSTGFLGTPRLLPTLTATGHTDVAYQLLEQRTFPSWGYQIDRGSTTMWERWDSLRPDGSFQDPGMNSFNHYAYGSVGEWMYQNITGIGMGEPGFRSIVIRPRPGGDVHEANGRYDSLYGPITTRWTRANDGAFTLDVSVPVNTTAEVWLPAATSRAASGISHAGATFLRLDDGCAVYGVGSGPYRFTAP
For B1, the “QS-17 (PAR %)” value in test [1] amounted to 5.144%. For the same molecule, the “Peak75 (PAR %)” value in test [2] is recorded as 2.151%. In test [3], the “Peak57 (PAR %)” value was 0.188%. Besides, in test [4], the “Left Peak” value turned out to be 23%, the “Middle Peak” value is 51% and the “Right Peak” value worked out at 26%. In test [5], the “Left Peak” value is 25%, the “Middle Peak” value is 47% and the “Right Peak” value came out at 28%. The “ratio PP/QS-21” value in test [6] is 0.21.

B2: 1073 (protein, listed as Streptomyces scabiei)
chain: MSHERATAEGTSAAARTAHRPHESPVHGLTVEHRTDPLGVDADRPRFGWRTRSASRGWRQGSYQILVATSPELLTPASADVWDSGRVRSADSVAVRYAGVPLRASTRYHWTVRVWNTEGRAAGTASPAVFETGLMSTDGVGGWDGARWIGMKGKVPGSPGAPLLRTRETLGCGDGRTVGDARLYISALGVYEAHVNGERVTVRQDGERTLELLPPGWTNYDARVDYLTYDVTVLLADGPEVTLAVVLGNGWYNGRVSEGSTYHTQSGNALAVKAKLLIRYTDGTTRSVVTGTSGGWKATDTGPFRADDLYDGQTYDARRELPGWTAPGFDDTAWSDVEHIAFEDRYPGVRLRAYPGESARFVDRWDRRPQSVTVITGVTGQDGSPHGRGRVVVDPARTVTDPAKAATAQVTLAAGETAVFDLGQNMVGVPRYGVRGPAGARVEFRFAEILNDDSAGADGPEGSLYRANLRSAKATSTYILKGDPEGETHQDSLTFYGFRHVSVTASETVTVTGLTGRVATSAVRETGTVTTNDPHVDKLASNIRWGQRGNYLWVPTDCPQRDERLGWTGDTQVFAVTGLYNADAYTFLSHFQDTVVDSQAIYGADGAQYTGVAPGGRYNFPGGGSGWADCGVVLPWTLWQMTGDTTVVEDNWPSMVRYLDWIRRQTGDTYAGQGSLTGDWLAPQKTSAQLMSDAYYGYSAHLMARMARAIGRAEEAATYERLFGRIRQAFIARYLSTEGGRVTVRSGLGDASPIEPGSDPNEKTEDNSQSALLWVLKLGFYENEAQRRALVALLADDIRNDAAHKEAHPDSVRVRYPENTLSVGFLGVNILAPVLTDEGRADLAYELLHQDALPSWLFSVKNGATTVWERWNSWAEDAGFGPVGMNSFNHYAYGAIMEWMYAYMAGIARDPDAPGFKRFLLQPHLDPTGRITRVRATHESPYGEILSAWEVGSGGRRLAYDVAVPANSEATLRVPAVSADSVREGGTPLADVAGVRFLGHTEGVSSYLLPSGRYRLSADLR
Take B2: the “QS-17 (PAR %)” value in test [1] came out at 0.007%. Moreover, in test [2], the “Peak75 (PAR %)” value worked out at 0.000%. Further, the “Peak57 (PAR %)” value in test [3] stood at 0.000%. Also, in test [4], the “Left Peak” value is given as 6%, the “Middle Peak” value turned out to be 62% and the “Right Peak” value was found to be 31%. For the same molecule, in test [5], the “Left Peak” value is given as 20%, the “Middle Peak” value stood at 52% and the “Right Peak” value was 28%. The “ratio PP/QS-21” value in test [6] is 0.18.

B3: 1003 (protein, listed as Rahnella aquatilis)
chain: MPAVIRLTLNQESALSGVQQLPVLGWEIESRNRNVRQTAYRLQISQDQDFDNILLRGEWQESECSNNIPLTELMLTSSQHYFIRVQVRDNYGETSGWSSPAQMITGVLYPHEWLADFITAETSADKDNSHATLLRKSFVLNRAQDIQSAFIHVSALGLYELYLNGHKAGEDALTPGWTSYHNHLLYQTYDVTGHLEKGENVIGAILGAGWYKGDMGFSRHRNYYGERSALISQLVINYNDGSQEIVISDESWKGQDSAILFSEIYDGEIYDARREIPGWCTKDVSGEGWRPVSLVTHEKSTLVAQGSNTVRKMAEIKPVALITTPQGDTVIDFGQNLSGWVEFRVSGKAGDEVVLRHFEVLDADGNVYLDNLRTARQRTAYVLKGEGEEIWHPHFTWQGFRFVKVEEYPGQWDLNNFTAIVLHSAMEQTGHFACSNPQLNQLHHNILWGLKGNFVDVPTDCPQRDERLGWTGDAQIFCRTASYLMQTRNFFAKWLTDLRYDQTPEGGVPHVIPDILTGYCGKDRLLSEGGTHSASAWADAAVINPWTMYLMYGDTCVLENQYASMKGWIDFMTAHAENHIWHYKLQFGDWVALDAKEGSYFGATPNDLTCTAYYAYSTQLFAKAAKVLNRTEDYDHYHALYQAIVRRFQEAFFTPSGQLAARTQTAHILALYFNLVPDEFRQRTTDTLVELLNEHDGHLVTGFVGTPYFCHALSQNGRTKEAWNLLLKEDFPSWLYQVKAGATTVWEHWDGIKPDGSMWSADMNSFNHYAYGAVGEWLYRVAAGIEADEAQPGFKHFIIKPLTGGGLSWLDTRYQSIYGAIGVRWEVSGQTVFLNVTVPANTSATVVLTDGQSVQEADGIDFARCAEGYTAEVGSGEYRIEYRLV
With B3, in test [1], the “QS-17 (PAR %)” value is reported as 0.000%. For the same molecule, the “Peak75 (PAR %)” value in test [2] came to 0.000%. Besides, the “Peak57 (PAR %)” value in test [3] is reported as 0.000%. Moreover, in test [4], the “Left Peak” value was determined as 7%, the “Middle Peak” value is 63% and the “Right Peak” value came to 31%. Moreover, in test [5], the “Left Peak” value is 27%, the “Middle Peak” value turned out to be 47% and the “Right Peak” value is reported as 26%. For the same molecule, in test [6], the “ratio PP/QS-21” value worked out at 0.19.

B4: 1052 (protein, listed as Microbacterium testaceum)
chain: MTTDTRVAAVKAELRTDSPFVATPTPRLTWRVETSTPSWRQASAEITDGATSVPLEGAESALVAWPFAPLEPGERREVRVRVTGVDGAVTAWSAPLAVEAGFLAPDEWVAEPIGLADPEREAQPALVQTAFRLDRPVRRALLLWTALGSAEPEINGRAVSDDVLAPGWSATRDRLVHETVDVTDLLVEGDNVVGATLAGAWYTERYGFFTFTDRIYGDQPAFLAQLRVTFADGTVETVAPTGSAWTATGDAEIVTSGIYAGEHQDLRLRAPWSTPDATTSGTDRRWAPARVGVVARPGHENVPLPEARIAEPVRRHESLPVVARLATPSGGEVLDFGQNLVGRLRLRVRGEAGTTVTIRHAEVLDEGELALRPLRNAKAEASFVLSGGDDVLESRFSFYGFRYAQITGIDVTDAQVEAVVLHSDMERTGWFTSSHALVNRLHENVVWGMRGNFLALPTDCPQRDERLGWTGDLQVFAPTASFLYDCDGFLTSWLRDLALEQERAGGIVPLVIPAALPSFAGGGPVAAWGDAAAVTPTVLHERFGDIGVLAAQYPSMRAWVEAVRADAGDSGLWAGRMQLGDWLDPSAPPDQPGKAKVDGDIVATAYFARSLRQVAEAAALLENTADAETYHALAERSRRAFVSEYVTPAGRMMSDAPTAYALALAFDLVQDAPTRAALADRLAALVRESGYRISTGFVGTPIIADALSDGGHHDAAERLLLQTQCPSWLYPVTQGATTVWERWDSLLPDGSVNPGEMTSFNHYALGAVADWLHRTVAGLAPAAPGYRRLRVAPRPLAAFEHASARHLTAYGPAEVSWEREPGSDVVRVRAIVPPNTTAEVALPGTLADGSEAPAEVGSGTHEWRVTLPAVPVRPPLPGLEAMLADVIDDPRAYAALLDALEETAPERVEGVRSGTVWGAGRPLASALMFTPPDVLARVDRAVRDATA
For the molecule B4, the “QS-17 (PAR %)” value in test [1] is reported as 0.000%. In test [2], the “Peak75 (PAR %)” value is listed as 0.000%. Besides, the “Peak57 (PAR %)” value in test [3] is on record as 0.000%. In test [4], the “Left Peak” value is given as 9%, the “Middle Peak” value worked out at 62% and the “Right Peak” value amounted to 30%. Further, in test [5], the “Left Peak” value is listed as 25%, the “Middle Peak” value was 49% and the “Right Peak” value is on record as 27%. Moreover, in test [6], the “ratio PP/QS-21” value stood at 0.16.
